Assay results reported in paper PMC11041684.

Target: Schlegelella thermodepolymerans KpsE (L77C, S138C) (Schlegelella thermodepolymerans)
Test: cryo-EM structure; KpsMT(E151Q)-KpsE, co-expressed and purified in LMNG (100 mM NaCl, 50 mM Tris pH 7.5, 0.025% LMNG, 5 mM MgCl2), supplemented with 2 mM ATP before grid preparation

stoichiometry N: 8
Substance: Schlegelella thermodepolymerans KpsE (L77C, S138C) (natural protein)
